In the supplement of paper PMC10065799, “High-throughput profiling of sequence recognition by tyrosine kinases and SH2 domains using bacterial peptide display” (eLife, 2023):

Columns and labels:
Hck = Hck (UniProt P08631); assay: phosphorylation enrichment, bacterial display (enrichment ratio); higher = better substrate or ligand; peptides without Tyr show the background
Fer (mouse) = assay: as above
AncSZ = assay: as above
c-Src = assay: as above
FGFR1 = FGFR1 (UniProt P11362); assay: as above
FGFR1, sequence (P11362 whole entry, looked up): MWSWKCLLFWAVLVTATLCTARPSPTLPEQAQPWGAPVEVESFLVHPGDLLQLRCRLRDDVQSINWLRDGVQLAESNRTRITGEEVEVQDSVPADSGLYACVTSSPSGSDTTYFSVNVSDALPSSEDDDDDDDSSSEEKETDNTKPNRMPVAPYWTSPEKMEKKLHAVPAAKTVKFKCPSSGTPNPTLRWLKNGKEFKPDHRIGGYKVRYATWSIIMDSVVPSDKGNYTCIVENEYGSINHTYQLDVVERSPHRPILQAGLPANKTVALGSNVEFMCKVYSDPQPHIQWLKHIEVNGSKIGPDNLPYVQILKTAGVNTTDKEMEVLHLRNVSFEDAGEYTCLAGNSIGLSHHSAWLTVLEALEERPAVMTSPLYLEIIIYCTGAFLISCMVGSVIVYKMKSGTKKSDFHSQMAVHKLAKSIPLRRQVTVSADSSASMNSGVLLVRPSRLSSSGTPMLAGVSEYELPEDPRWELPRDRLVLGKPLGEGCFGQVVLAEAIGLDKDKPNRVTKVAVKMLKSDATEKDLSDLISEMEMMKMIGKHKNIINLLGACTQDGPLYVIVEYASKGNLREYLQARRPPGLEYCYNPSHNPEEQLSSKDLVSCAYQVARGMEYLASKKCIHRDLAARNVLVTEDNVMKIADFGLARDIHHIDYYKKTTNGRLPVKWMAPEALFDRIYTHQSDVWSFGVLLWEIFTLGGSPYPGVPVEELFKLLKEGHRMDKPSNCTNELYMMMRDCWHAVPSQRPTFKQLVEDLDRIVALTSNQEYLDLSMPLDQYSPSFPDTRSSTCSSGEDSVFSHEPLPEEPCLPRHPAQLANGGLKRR

Fyn = Fyn (UniProt P06241); assay: as above
c-Abl (mouse) = assay: as above
EPHB1 = EPHB1 (UniProt P54762); assay: as above
EPHB1, sequence (P54762 whole entry, looked up): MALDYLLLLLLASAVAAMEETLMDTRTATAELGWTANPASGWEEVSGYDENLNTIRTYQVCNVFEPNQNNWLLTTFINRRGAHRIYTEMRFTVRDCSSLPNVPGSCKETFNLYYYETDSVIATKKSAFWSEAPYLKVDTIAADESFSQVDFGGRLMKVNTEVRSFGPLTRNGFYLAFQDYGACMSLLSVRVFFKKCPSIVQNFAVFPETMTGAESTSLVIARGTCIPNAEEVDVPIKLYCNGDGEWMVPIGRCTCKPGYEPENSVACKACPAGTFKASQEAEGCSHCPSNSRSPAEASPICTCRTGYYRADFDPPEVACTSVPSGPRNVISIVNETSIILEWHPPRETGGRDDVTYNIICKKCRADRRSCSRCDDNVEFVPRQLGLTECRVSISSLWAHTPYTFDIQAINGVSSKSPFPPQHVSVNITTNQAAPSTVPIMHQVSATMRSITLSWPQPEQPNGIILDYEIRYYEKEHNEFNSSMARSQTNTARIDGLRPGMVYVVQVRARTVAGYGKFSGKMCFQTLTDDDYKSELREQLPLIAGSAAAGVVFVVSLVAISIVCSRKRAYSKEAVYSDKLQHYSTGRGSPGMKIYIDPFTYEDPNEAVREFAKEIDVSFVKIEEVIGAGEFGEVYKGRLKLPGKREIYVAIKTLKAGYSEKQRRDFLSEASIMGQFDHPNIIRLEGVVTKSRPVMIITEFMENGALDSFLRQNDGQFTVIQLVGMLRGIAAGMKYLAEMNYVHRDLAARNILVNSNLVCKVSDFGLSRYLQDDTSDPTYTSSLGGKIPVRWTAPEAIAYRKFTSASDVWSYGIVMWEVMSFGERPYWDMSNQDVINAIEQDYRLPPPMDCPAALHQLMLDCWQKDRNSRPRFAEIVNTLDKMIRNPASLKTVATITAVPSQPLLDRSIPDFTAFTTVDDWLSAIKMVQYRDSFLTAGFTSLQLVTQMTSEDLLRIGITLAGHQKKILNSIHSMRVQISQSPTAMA

FGFR3 = FGFR3 (UniProt P22607); assay: as above
FGFR3, sequence (P22607 whole entry, looked up): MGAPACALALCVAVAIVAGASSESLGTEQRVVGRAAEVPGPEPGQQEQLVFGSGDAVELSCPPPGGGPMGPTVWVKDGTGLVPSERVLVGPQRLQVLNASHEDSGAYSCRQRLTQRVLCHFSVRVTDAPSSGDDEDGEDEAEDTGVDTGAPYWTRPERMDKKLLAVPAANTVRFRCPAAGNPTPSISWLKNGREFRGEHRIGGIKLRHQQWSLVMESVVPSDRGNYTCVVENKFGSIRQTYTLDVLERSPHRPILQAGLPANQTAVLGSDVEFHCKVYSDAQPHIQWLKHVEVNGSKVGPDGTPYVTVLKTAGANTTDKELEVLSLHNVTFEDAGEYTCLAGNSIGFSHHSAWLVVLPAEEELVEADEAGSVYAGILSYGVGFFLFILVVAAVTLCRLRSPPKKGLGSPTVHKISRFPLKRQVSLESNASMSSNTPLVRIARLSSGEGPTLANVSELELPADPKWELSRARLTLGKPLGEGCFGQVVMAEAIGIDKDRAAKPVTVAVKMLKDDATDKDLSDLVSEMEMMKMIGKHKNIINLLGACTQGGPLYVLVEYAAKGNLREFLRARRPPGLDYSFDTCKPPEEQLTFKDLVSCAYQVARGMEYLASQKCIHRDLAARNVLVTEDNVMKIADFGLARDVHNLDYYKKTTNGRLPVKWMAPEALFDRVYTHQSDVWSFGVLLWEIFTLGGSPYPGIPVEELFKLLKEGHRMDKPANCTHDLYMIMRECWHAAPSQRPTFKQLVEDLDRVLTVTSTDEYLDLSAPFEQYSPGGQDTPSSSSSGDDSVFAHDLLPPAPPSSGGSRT

MERTK = MERTK (UniProt Q12866); assay: as above
Fes = Fes (UniProt P07332); assay: as above
Fes, sequence (P07332 whole entry, looked up): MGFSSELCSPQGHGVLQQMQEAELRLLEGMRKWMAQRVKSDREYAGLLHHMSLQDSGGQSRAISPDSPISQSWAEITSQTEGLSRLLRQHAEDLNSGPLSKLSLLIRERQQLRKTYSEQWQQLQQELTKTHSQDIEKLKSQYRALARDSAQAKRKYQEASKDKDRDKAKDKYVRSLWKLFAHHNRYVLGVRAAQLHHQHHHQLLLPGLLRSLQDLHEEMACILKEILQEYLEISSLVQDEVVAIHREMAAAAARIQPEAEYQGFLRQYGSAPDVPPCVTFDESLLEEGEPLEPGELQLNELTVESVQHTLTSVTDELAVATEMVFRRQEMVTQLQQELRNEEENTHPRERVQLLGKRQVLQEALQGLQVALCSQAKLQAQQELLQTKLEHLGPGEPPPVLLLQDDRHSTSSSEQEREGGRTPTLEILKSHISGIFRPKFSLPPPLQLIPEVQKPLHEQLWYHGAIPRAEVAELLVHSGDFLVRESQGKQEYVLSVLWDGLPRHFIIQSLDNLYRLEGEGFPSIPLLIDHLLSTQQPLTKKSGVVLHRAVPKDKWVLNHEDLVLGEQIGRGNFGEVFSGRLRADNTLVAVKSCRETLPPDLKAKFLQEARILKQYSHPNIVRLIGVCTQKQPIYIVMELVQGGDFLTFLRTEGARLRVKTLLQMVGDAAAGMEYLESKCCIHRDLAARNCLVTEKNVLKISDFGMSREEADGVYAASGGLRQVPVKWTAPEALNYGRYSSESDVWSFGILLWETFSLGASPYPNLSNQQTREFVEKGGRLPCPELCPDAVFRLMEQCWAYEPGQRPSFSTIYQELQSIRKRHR

Jak2 = Jak2 (UniProt O60674); assay: as above
EPHB2 = EPHB2 (UniProt P29323); assay: as above
EPHB2, sequence (P29323 whole entry, looked up): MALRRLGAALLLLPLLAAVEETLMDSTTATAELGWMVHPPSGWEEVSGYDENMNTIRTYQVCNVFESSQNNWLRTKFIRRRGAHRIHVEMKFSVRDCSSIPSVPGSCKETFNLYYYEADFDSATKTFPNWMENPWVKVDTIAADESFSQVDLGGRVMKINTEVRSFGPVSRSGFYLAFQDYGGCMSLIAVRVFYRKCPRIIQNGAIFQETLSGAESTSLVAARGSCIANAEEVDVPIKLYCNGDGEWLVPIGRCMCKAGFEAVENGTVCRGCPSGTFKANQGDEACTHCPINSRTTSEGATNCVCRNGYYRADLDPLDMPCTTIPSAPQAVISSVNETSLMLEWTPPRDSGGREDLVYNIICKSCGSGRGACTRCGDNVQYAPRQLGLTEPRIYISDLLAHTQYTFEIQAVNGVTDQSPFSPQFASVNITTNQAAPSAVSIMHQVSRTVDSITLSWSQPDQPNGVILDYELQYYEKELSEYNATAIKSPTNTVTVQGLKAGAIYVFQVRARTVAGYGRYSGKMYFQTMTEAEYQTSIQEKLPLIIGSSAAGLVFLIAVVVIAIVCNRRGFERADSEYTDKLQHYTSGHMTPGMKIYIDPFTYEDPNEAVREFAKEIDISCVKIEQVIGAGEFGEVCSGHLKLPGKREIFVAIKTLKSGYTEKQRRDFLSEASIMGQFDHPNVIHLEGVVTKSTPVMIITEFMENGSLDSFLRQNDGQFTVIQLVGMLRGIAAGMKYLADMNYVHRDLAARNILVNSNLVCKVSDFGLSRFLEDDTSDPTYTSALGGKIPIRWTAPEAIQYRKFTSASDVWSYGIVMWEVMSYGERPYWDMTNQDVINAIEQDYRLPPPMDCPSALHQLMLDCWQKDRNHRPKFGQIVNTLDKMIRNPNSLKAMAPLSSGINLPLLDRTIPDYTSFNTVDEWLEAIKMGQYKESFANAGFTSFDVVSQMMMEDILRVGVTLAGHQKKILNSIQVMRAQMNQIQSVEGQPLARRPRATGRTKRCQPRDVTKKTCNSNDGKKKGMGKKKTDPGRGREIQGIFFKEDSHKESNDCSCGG

c-Src SH2 = assay: SH2 binding enrichment of the phosphorylated peptide, bacterial display (enrichment ratio); higher = better substrate or ligand; peptides without Tyr show the background
SHP2-C SH2 = assay: as above
Grb2 SH2 = Grb2 SH2 (UniProt P62993); assay: as above
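Wherever SH2 binding enrichment of the phosphorylated peptide, bacterial display is given: peptide library displayed on the E. coli surface as eCPX fusions, selected cells deep-sequenced, score is each peptide's frequency after selection divided by its frequency in the input.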
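Wherever phosphorylation enrichment, bacterial display is given: 11-residue human phosphosite peptides and single-mutation variants displayed on the E. coli surface, counted by deep sequencing, each peptide's frequency after selection divided by its frequency in the unselected input library; frequency after pTyr selection over input frequency; kinase dosed for 20-30% of maximal phosphorylation in three min.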

Hck, sequence (P08631 whole entry, looked up): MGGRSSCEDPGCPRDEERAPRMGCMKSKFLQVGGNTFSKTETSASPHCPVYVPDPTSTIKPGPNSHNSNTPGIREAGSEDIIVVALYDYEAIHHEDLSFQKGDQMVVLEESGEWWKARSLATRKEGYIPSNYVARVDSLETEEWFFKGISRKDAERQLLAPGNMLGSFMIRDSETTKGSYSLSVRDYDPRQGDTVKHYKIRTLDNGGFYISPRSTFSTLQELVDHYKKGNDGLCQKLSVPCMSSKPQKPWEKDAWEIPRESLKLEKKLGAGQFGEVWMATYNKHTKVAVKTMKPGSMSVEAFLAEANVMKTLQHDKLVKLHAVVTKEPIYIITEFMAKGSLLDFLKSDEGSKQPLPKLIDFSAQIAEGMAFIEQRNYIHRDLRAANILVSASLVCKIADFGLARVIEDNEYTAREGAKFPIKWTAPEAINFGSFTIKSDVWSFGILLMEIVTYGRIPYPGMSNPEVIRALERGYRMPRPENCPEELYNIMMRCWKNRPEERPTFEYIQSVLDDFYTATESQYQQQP

Sequence | SH2 binding enrichment (c-Src SH2) | SH2 binding enrichment (SHP2-C SH2) | SH2 binding enrichment (Grb2 SH2) | phosphorylation enrichment (Hck) | phosphorylation enrichment (Fer (mouse)) | phosphorylation enrichment (AncSZ) | phosphorylation enrichment (c-Src) | phosphorylation enrichment (FGFR1) | phosphorylation enrichment (Fyn) | phosphorylation enrichment (c-Abl (mouse)) | phosphorylation enrichment (EPHB1) | phosphorylation enrichment (FGFR3) | phosphorylation enrichment (MERTK) | phosphorylation enrichment (Fes) | phosphorylation enrichment (Jak2) | phosphorylation enrichment (EPHB2)
AQVDTYCRHNY [HLA-DRB1_Y107_A103Q] | 0.485 | 0.707 | 1.05 | 0.523 | 0.517 | 0.752 | 0.369 | 0.512 | 0.549 | 0.693 | 0.536 | 0.679 | 0.447 | 0.866 | 0.764 | 0.47
ASKEPYYVRCI [MYO1D_Y585] | 0.481 | 0.391 | 0.702 | 0.464 | 0.557 | 1.35 | 0.595 | 0.686 | 0.521 | 1.19 | 0.877 | 0.813 | 0.618 | 1.17 | 1.21 | 0.802
ASPKSYPSQKH [CAP2_Y316_T311A] | 0.385 | 0.638 | 0.635 | 0.333 | 0.323 | 0.426 | 0.366 | 0.356 | 0.374 | 0.484 | 0.358 | 0.406 | 0.356 | 0.511 | 0.464 | 0.276
ASTDYNKRGDF [PDHA1_Y243_Y243N] | 0.446 | 0.512 | 0.954 | 0.332 | 0.378 | 0.502 | 0.47 | 0.421 | 0.456 | 0.469 | 0.348 | 0.402 | 0.405 | 0.599 | 0.468 | 0.474
ASYGPYTRVQS [FOXL2_Y258] | 2.89 | 6.64 | 0.86 | 0.793 | 0.438 | 0.551 | 0.559 | 0.422 | 0.673 | 0.464 | 0.415 | 0.427 | 0.376 | 0.623 | 0.539 | 0.583
ATAKGYEPDAS [OTC_Y223_P220A] | 0.494 | 0.598 | 0.836 | 0.483 | 0.473 | 0.883 | 0.461 | 0.481 | 0.441 | 0.598 | 0.523 | 0.549 | 0.416 | 0.784 | 0.684 | 0.523
ATDLAYYLVRE [ASL_Y375_K380E] | 1.58 | 3.3 | 1.08 | 1.01 | 0.43 | 1.21 | 1.46 | 8.49 | 0.929 | 0.527 | 0.675 | 6.9 | 1.23 | 0.909 | 2.38 | 0.476
ATVLNYLPKCI [A2M_Y817] | 0.535 | 0.736 | 0.899 | 0.599 | 0.438 | 0.747 | 0.385 | 0.519 | 0.437 | 0.714 | 0.662 | 0.649 | 0.392 | 0.987 | 0.858 | 0.542
AVNNFYAAKKT [CCDC178_Y422_D420N] | 0.518 | 0.745 | 0.965 | 0.428 | 0.369 | 0.708 | 0.463 | 0.52 | 0.372 | 0.542 | 0.373 | 0.402 | 0.475 | 0.58 | 0.566 | 0.352
AVPSLYASGRT [ACTA1_Y145_L142P] | 0.415 | 0.643 | 0.818 | 1.74 | 0.451 | 0.65 | 0.451 | 0.405 | 0.393 | 0.538 | 0.452 | 0.434 | 0.473 | 0.57 | 0.523 | 0.433
CKLFQYFLDHL [ATRX_Y1849_YF] | 1.34 | 1.41 | 1.57 | 0.585 | 0.635 | 1.37 | 0.524 | 0.647 | 0.536 | 0.933 | 0.693 | 0.873 | 0.526 | 1.41 | 1.3 | 0.605
CKSVHYDLVFL [COL22A1_Y37] | 0.986 | 0.613 | 0.775 | 0.632 | 9.46 | 1.24 | 0.528 | 0.532 | 0.554 | 0.93 | 0.806 | 0.866 | 1.56 | 1.38 | 1.19 | 0.739
CLLHCYFSQIR [MCM3AP_Y873] | 1.53 | 1.65 | 1.93 | 0.413 | 0.391 | 0.856 | 0.368 | 0.518 | 0.327 | 0.667 | 0.497 | 0.867 | 0.401 | 1.32 | 1.21 | 0.428
CPEARYNRSPI [PTAR1_Y42] | 0.522 | 0.483 | 0.618 | 0.492 | 0.435 | 0.699 | 0.399 | 0.419 | 0.441 | 0.55 | 0.485 | 0.617 | 0.433 | 0.859 | 0.641 | 0.458
CPFNLYAAQLS [HGD_Y40_E42A_YF] | 0.537 | 0.811 | 0.726 | 1.09 | 0.76 | 1.2 | 0.961 | 0.573 | 0.648 | 0.874 | 1.79 | 0.816 | 1.7 | 1.29 | 1.02 | 1.24
CQASLYPSNHD [LRIG1_Y996_G993A] | 0.475 | 0.694 | 0.781 | 0.595 | 0.524 | 1.08 | 0.449 | 0.577 | 0.571 | 0.798 | 0.721 | 0.792 | 0.42 | 1.3 | 1.01 | 0.624
CSHMFYGKQCC [ADAMTS16_Y1211_K1209M] | 0.772 | 0.827 | 1.14 | 0.519 | 0.539 | 0.839 | 0.573 | 0.464 | 0.653 | 0.713 | 0.587 | 0.606 | 0.485 | 1.01 | 0.852 | 0.543
CTLLPYYSAPV [DGKE_Y269_R273P] | 1.53 | 0.54 | 0.71 | 1.14 | 2.17 | 2.02 | 1.25 | 1.43 | 0.792 | 1.65 | 2.04 | 1.3 | 4.17 | 1.71 | 1.54 | 2.29
CYSSEYHYVGG [CTSC_Y345_Y340C] | 2.04 | 0.943 | 0.884 | 2.29 | 1.26 | 4.45 | 2.02 | 13 | 1.57 | 2.79 | 5.54 | 9.68 | 4.76 | 1.1 | 1.77 | 5.91
DAGTDYVGISC [FREM2_Y2061_R2066C] | 0.658 | 0.898 | 0.991 | 0.478 | 0.558 | 1.31 | 0.546 | 1.05 | 0.522 | 0.688 | 0.578 | 0.959 | 0.4 | 0.961 | 0.732 | 0.619
DAKAIYDFTDT [PDK1_Y136] | 0.604 | 0.6 | 0.896 | 3.18 | 5.43 | 1.3 | 5.87 | 0.604 | 7.96 | 1.03 | 1.43 | 0.665 | 5.88 | 1.15 | 0.994 | 1.85
DCVRMYELVHR [GLE1_Y135_G130D] | 2.56 | 0.746 | 0.925 | 2.57 | 7.12 | 1.21 | 1.3 | 0.594 | 0.754 | 1.03 | 7.46 | 0.831 | 3.03 | 1.31 | 1.09 | 3.53
DEDEEYEYMNR [ERBB3_Y1197] | 0.634 | 0.926 | 1.02 | 0.567 | 0.556 | 1.38 | 0.54 | 0.511 | 0.523 | 0.668 | 0.587 | 0.62 | 0.487 | 1.23 | 1.19 | 0.712

The next lines start with results.

SH2 binding enrichment (c-Src SH2) | SH2 binding enrichment (SHP2-C SH2) | SH2 binding enrichment (Grb2 SH2) | Sequence | phosphorylation enrichment (Hck) | phosphorylation enrichment (Fer (mouse)) | phosphorylation enrichment (AncSZ) | phosphorylation enrichment (c-Src) | phosphorylation enrichment (FGFR1) | phosphorylation enrichment (Fyn) | phosphorylation enrichment (c-Abl (mouse)) | phosphorylation enrichment (EPHB1) | phosphorylation enrichment (FGFR3) | phosphorylation enrichment (MERTK) | phosphorylation enrichment (Fes) | phosphorylation enrichment (Jak2) | phosphorylation enrichment (EPHB2)
0.469 | 0.545 | 0.714 | APGDAYGDAGF [SYP_Y250_YF] | 0.566 | 0.491 | 0.938 | 0.464 | 0.484 | 0.494 | 0.565 | 0.514 | 0.521 | 0.426 | 0.905 | 0.8 | 0.548
0.469 | 0.639 | 0.883 | APGNAYGDAGF [SYP_Y250_D248N_YF] | 0.433 | 0.369 | 0.527 | 0.322 | 0.373 | 0.339 | 0.443 | 0.351 | 0.412 | 0.348 | 0.504 | 0.52 | 0.313
0.908 | 1.43 | 1.49 | AQMAMYFWEMG [TRPM4_Y577] | 1.36 | 0.682 | 1.38 | 2.62 | 3.25 | 1.1 | 1.11 | 0.995 | 3.09 | 2.67 | 1.45 | 1.37 | 0.914
0.505 | 1.33 | 0.887 | ARMTNYGLPRF [TSPAN12_Y138_YF] | 0.413 | 0.409 | 0.547 | 0.519 | 0.42 | 0.401 | 0.496 | 0.424 | 0.501 | 0.511 | 0.636 | 0.503 | 0.542
0.6 | 0.76 | 0.849 | AVSHRYDLGGL [QPRT_Y162_A158V] | 0.415 | 0.344 | 0.515 | 0.385 | 0.347 | 0.337 | 0.379 | 0.403 | 0.42 | 0.379 | 0.527 | 0.467 | 0.524
0.6 | 0.757 | 0.968 | CNNFICGGCRG [SPINT2_Y163_Y163C] | 0.504 | 0.443 | 0.963 | 0.415 | 0.5 | 0.519 | 0.697 | 0.466 | 0.644 | 0.488 | 0.902 | 0.87 | 0.515
2.21 | 1.62 | 1.62 | CTNIHYNFMCN [TP53_Y234_T231N_YF] | 0.426 | 0.481 | 0.8 | 0.562 | 0.554 | 0.456 | 0.655 | 0.436 | 0.714 | 0.423 | 0.974 | 0.693 | 0.597
1.67 | 2.26 | 1.65 | CTTIHYHFMCN [TP53_Y234_N235H_YF] | 0.48 | 0.632 | 1.1 | 0.488 | 0.599 | 0.542 | 0.785 | 0.549 | 0.729 | 0.441 | 1.06 | 0.902 | 0.637
4.85 | 6.45 | 1.52 | CTTIHYTYMCN [TP53_Y234_N235T] | 0.524 | 0.591 | 1.08 | 0.549 | 0.724 | 0.496 | 0.672 | 0.608 | 0.704 | 0.517 | 1.07 | 1.04 | 0.761
0.657 | 1.21 | 1.06 | DEEPPYRGPFC [SASH1_Y551] | 0.389 | 0.434 | 0.863 | 0.493 | 0.525 | 0.437 | 0.673 | 0.509 | 0.656 | 0.332 | 0.895 | 0.697 | 0.396
